Laboratory results reported in the supplement of paper PMC10724198.
± gives the standard deviation of the averaged measurements.

Assays:
Saccharomyces cerevisiae [1] = test: protein stability index of tFT-peptide fusion (C-terminal peptide) (PSI (0-1 scale)); higher = more stable (slower turnover); conditions: genetic background: wild type; temperature: 30 C
Saccharomyces cerevisiae [2] = test: as above
Experimental: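 MPS profiling in S. cerevisiae of the tFT-X12 degron library: putative degron peptides plus stable controls, 12 aa, fused to the C-terminus of a sfGFP-mCherry timer. Cells are FACS-sorted into 8 mCherry/sfGFP bins and deep-sequenced. PSI runs from 0 (unstable) to 1 (stable). Backgrounds are wild type, das1Δ and doa10Δ at 30 °C, and wild type, das1Δ, cdc34-1 and cdc53-1 at 37 °C; 2-3 technical replicates each.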

[3] = genetic background: cdc34-1, temperature: 37 C
[4] = genetic background: cdc53-1, temperature: 37 C
[5] = genetic background: das1 deletion, temperature: 30 C
[6] = genetic background: das1 deletion, temperature: 37 C
[7] = genetic background: doa10 deletion, temperature: 30 C
[8] = genetic background: wild type, temperature: 30 C
[9] = genetic background: wild type, temperature: 37 C
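Further: PSI is a weighted mean of sequencing reads over stability bins, variants kept only with over 10 reads, mCherry proximal and sfGFP distal, peptide attached via GGGS linker.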

Sequence | protein stability index (Saccharomyces cerevisiae [1]) | protein stability index (Saccharomyces cerevisiae [2]; [3]) | protein stability index (Saccharomyces cerevisiae [2]; [4]) | protein stability index (Saccharomyces cerevisiae [2]; [5]) | protein stability index (Saccharomyces cerevisiae [2]; [6]) | protein stability index (Saccharomyces cerevisiae [2]; [7]) | protein stability index (Saccharomyces cerevisiae [2]; [8]) | protein stability index (Saccharomyces cerevisiae [2]; [9])
FLLYSILLAFLL | 0.436 ± 0.011 | 0.524 ± 0.034 | 0.503 ± 0.02 | 0.415 ± 0.033 | 0.546 ± 0.0071 | 0.37 ± 0.012 | 0.345 ± 0.033 | 0.492 ± 0.037
FLMLFVVLWLFL | 0.366 ± 0.076 | 0.427 ± 0.026 | 0.46 ± 0.0076 | 0.394 ± 0.028 | 0.522 ± 0.071 | 0.389 ± 0.014 | 0.369 ± 0.04 | 0.448 ± 0.0072
FLPFRVFNFSLV | 0.38 ± 0.063 | 0.659 ± 0.031 | 0.713 ± 0.015 | 0.653 ± 0.035 | 0.725 ± 0.015 | 0.22 ± 0.011 | 0.229 ± 0.026 | 0.441 ± 0.05
FLSFARSSCLWF | 0.748 ± 0.016 | 0.678 ± 0.028 | 0.7423 ± 0.0011 | 0.657 ± 0.015 | 0.739 ± 0.014 | 0.676 ± 0.03 | 0.666 ± 0.0085 | 0.7115 ± 0.00098
FMSAGVSWIFFV | 0.343 ± 0.047 | 0.579 ± 0.021 | 0.7146 ± 0.0024 | 0.601 ± 0.021 | 0.7503 ± 0.0043 | 0.105 ± 0.013 | 0.13 ± 0.012 | 0.129 ± 0.011
FNLWCRQLASIE | 0.327 ± 0.094 | 0.181 ± 0.034 | 0.218 ± 0.0042 | 0.276 ± 0.0061 | 0.187 ± 0.0035 | 0.29904 ± 0.00019 | 0.284 ± 0.012 | 0.178 ± 0.0067
FPLFCRIHLLCS | 0.107 ± 0.0096 | 0.138 ± 0.0083 | 0.157 ± 0.0044 | 0.2 ± 0.017 | 0.275 ± 0.0037 | 0.059 ± 0.02 | 0.0768 ± 0.011 | 0.0529 ± 0.0047
FPPHFLPLVFLS | 0.103 ± 0.0049 | 0.436 ± 0.035 | 0.5867 ± 0.0031 | 0.56 ± 0.026 | 0.67 ± 0.0083 | 0.0786 ± 0.017 | 0.0804 ± 0.02 | 0.0988 ± 0.0048
FPRPLPVPLAVS | 0.25711 ± 0.00013 | 0.153 ± 0.023 | 0.217 ± 0.06 | 0.193 ± 0.033 | 0.2901 ± 0.0012 | 0.15456 ± 3.3e-05 | 0.181 ± 0.0047 | 0.221 ± 0.005
FPWGRIFLRLRT | 0.487 ± 0.049 | 0.34 ± 0.083 | 0.347 ± 0.025 | 0.47 ± 0.042 | 0.565 ± 0.01 | 0.5445 ± 0.0029 | 0.441 ± 0.015 | 0.5125 ± 0.0051
FQFTLWRTLLCS | 0.189 ± 0.0077 | 0.1843 ± 0.00066 | 0.248 ± 0.03 | 0.218 ± 0.026 | 0.3394 ± 0.0027 | 0.113 ± 0.015 | 0.137 ± 0.021 | 0.174 ± 0.0054
FQLGLVFCVCSG | 0.367 ± 0.022 | 0.432 ± 0.0073 | 0.438 ± 0.022 | 0.258 ± 0.041 | 0.469 ± 0.0075 | 0.244 ± 0.0076 | 0.258 ± 0.026 | 0.453 ± 0.016
FQWILYIAKRVV | 0.338 ± 0.021 | 0.556 ± 0.095 | 0.671 ± 0.04 | 0.473 ± 0.036 | 0.603 ± 0.0069 | 0.259 ± 0.059 | 0.261 ± 0.044 | 0.442 ± 0.051
FRCPHAVKLVLV | 0.311 ± 0.02 | 0.384 ± 0.021 | 0.404 ± 0.016 | 0.328 ± 0.037 | 0.471 ± 0.011 | 0.1947 ± 0.0014 | 0.214 ± 0.018 | 0.33212 ± 0.00028
FRFSSLLYILLS | 0.0959 ± 0.022 | 0.223 ± 0.067 | 0.274 ± 0.018 | 0.316 ± 0.017 | 0.402 ± 0.016 | 0.0923 ± 0.012 | 0.0651 ± 0.018 | 0.0868 ± 0.021
FRTTGQAPPSKP | 0.568 ± 0.2 | 0.674 ± 0.064 | 0.743 ± 0.013 | 0.633 ± 0.013 | 0.727 ± 0.022 | 0.64 ± 0.038 | 0.6444 ± 0.0056 | 0.71966 ± 0.0003
FSLRLFLVLALS | 0.193 ± 0.0034 | 0.3032 ± 0.0029 | 0.377 ± 0.01 | 0.261 ± 0.021 | 0.395 ± 0.012 | 0.123 ± 0.013 | 0.154 ± 0.028 | 0.227 ± 0.0026
FSVTTLTILCLR | 0.3497 ± 0.0014 | 0.305 ± 0.017 | 0.329 ± 0.011 | 0.273 ± 0.029 | 0.394 ± 0.017 | 0.49 ± 0.061 | 0.277 ± 0.02 | 0.382 ± 0.0086
FSYLSFLPSLAA | 0.527 ± 0.048 | 0.545 ± 0.049 | 0.562 ± 0.034 | 0.466 ± 0.031 | 0.599 ± 0.017 | 0.442 ± 0.0053 | 0.468 ± 0.0066 | 0.5654 ± 0.0021
FTFPLPPSLLLV | 0.347 ± 0.017 | 0.378 ± 0.023 | 0.389 ± 0.0036 | 0.322 ± 0.021 | 0.456 ± 0.011 | 0.2603 ± 0.00082 | 0.233 ± 0.028 | 0.37 ± 0.0071
